Results published in publication PMC5368077, “Structural and functional insights into thermally stable cytochrome c′ from a thermophile” (Protein Science : A Publication of the Protein Society, 2017).

Assays:
[1] = biological target: PHCP F11T/T18F/F71D triple variant (Hydrogenophilus thermoluteolus); test: AUC; sedimentation velocity, 5 μM protein, 10 mM Tris-HCl (pH 7.5) with 100 mM NaCl, 20°C, 42,000 rpm, c(s) model in SEDFIT; n = 1
[2] = biological target: PHCP T17E variant (Hydrogenophilus thermoluteolus); test: AUC; sedimentation velocity of the single variants, data not shown; the same analysis as for the wild-type
[3] = biological target: PHCP L76V variant (Hydrogenophilus thermoluteolus); test: as above
[4] = biological target: PHCP T17E/A20G/L76V triple variant (Hydrogenophilus thermoluteolus); test: AUC; sedimentation velocity, 5 μM protein, 10 mM Tris-HCl (pH 7.5) with 100 mM NaCl, 20°C, 42,000 rpm, c(s) model in SEDFIT; n = 1
[5] = biological target: recombinant PHCP wild-type (Hydrogenophilus thermoluteolus); test: as above
[6] = biological target: PHCP T18F variant (Hydrogenophilus thermoluteolus); test: AUC; sedimentation velocity of the single variants, data not shown; the same analysis as for the wild-type
[7] = biological target: PHCP F11T variant (Hydrogenophilus thermoluteolus); test: as above
[8] = biological target: T1, PHCP (Hydrogenophilus thermoluteolus cytochrome c') (Hydrogenophilus thermoluteolus, UniProt F7J213); test: visible absorption spectroscopy; format: binding; conditions: reduced (dithionite) protein 6 uM; 0.5% (v/v) ligand; 10 mM potassium phosphate pH 7.0; 25 C; isomer of butyl group not stated
T1 construct: gene cytc; mature protein, N-terminal DALKP; authentic protein from H. thermoluteolus cells for crystal
T1 sequence (F7J213 20-154): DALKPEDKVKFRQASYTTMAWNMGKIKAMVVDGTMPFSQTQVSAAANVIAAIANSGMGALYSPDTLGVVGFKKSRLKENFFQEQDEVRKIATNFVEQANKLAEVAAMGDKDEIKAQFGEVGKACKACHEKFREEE

[9] = biological target: PHCP A20G variant (Hydrogenophilus thermoluteolus); test: AUC; sedimentation velocity of the single variants, data not shown; the same analysis as for the wild-type
[10] = biological target: PHCP F71D variant (Hydrogenophilus thermoluteolus); test: as above

“PHCP F11T/T18F/F71D triple variant (natural protein)” was tested. Which population of the dimer species [1] did it give?
The population of the dimer species was 97.7%.

What about the stoichiometry N [1] of the same molecule?
The stoichiometry N was 2.

With PHCP T17E variant (natural protein) as the molecule, how does the stoichiometry N [2] read?
Its stoichiometry N is 2.

With PHCP L76V variant (natural protein) as the molecule, how does the stoichiometry N [3] read?
The stoichiometry N was 2.

What does the source list for “PHCP T17E/A20G/L76V triple variant (natural protein)”?
population of the dimer species [4]: 91.1%; stoichiometry N [4]: 2

With “recombinant PHCP wild-type (natural protein)” as the molecule, how does the population of the dimer species [5] read?
The population of the dimer species was 99.9%.

And the stoichiometry N [5]?
The stoichiometry N was 2.

With PHCP T18F variant (natural protein) as the molecule, how does the stoichiometry N [6] read?
The stoichiometry N was 2.

For PHCP F11T variant (natural protein), which stoichiometry N [7] is on record?
The stoichiometry N was 2.

For `[C-]#[N+]CCCC` [butyl-isocyanide], which visible absorption spectroscopy [8] is on record?
The visible absorption spectroscopy was “PHCP is able to bind CO, NO, and large ligands such as butyl‐isocyanide and imidazole”.

PHCP A20G variant (natural protein) was tested. Which stoichiometry N [9] did it give?
The stoichiometry N was 2.

For PHCP F71D variant (natural protein), which stoichiometry N [10] is on record?
The stoichiometry N was 2.
